Results as given in US20160024487.

Assays:
human α-thrombin (FIIa) = human α-thrombin (FIIa) (UniProt P00734)
[1] = system: Lys(Dnp)-ATNATDKPRIVGG-Lys(Abz)
[2] = system: Lys(Dnp)-ATNATHHPRIVGG-Lys(Abz)
[3] = system: Lys(Dnp)-ATNATAMPRIVGG-Lys(Abz)
[4] = system: Lys(Dnp)-ATNATIDPRIVGG-Lys(Abz)
[5] = system: Lys(Dnp)-DQVTVAMTPRIVGG-Lys(Abz)
[6] = system: Lys(Dnp)-DNEEGFFSARIVGG-Lys(Abz)
[7] = system: Lys(Dnp)-ATNATFIPRIVGG-Lys(Abz)
[8] = system: Lys(Dnp)-EDSDRAIEGRIVGG-Lys(Abz)
[9] = system: Lys(Dnp)-ATNATKYPRIVGG-Lys(Abz)
[10] = system: Lys(Dnp)-ATNATKMPRIVGG-Lys(Abz)
[11] = system: Lys(Dnp)-ATNATNPPRIVGG-Lys(Abz)
[12] = system: Lys(Dnp)-ATNATPAPRIVGG-Lys(Abz)
[13] = system: Lys(Dnp)-DFLAEGGGPRIVGG-Lys(Abz)
[14] = system: Lys(Dnp)-ATNATYKPRIVGG-Lys(Abz)
[15] = system: Lys(Dnp)-ATNATARPRIVGG-Lys(Abz)
[16] = system: Lys(Dnp)-ATNATEPPRIVGG-Lys(Abz)
[17] = system: Lys(Dnp)-SEYQTFFNPRIVGG-Lys(Abz)
[18] = system: PAR 1 control substrate sequence [Lys(Dnp)-ATNATLDPRIVGG-Lys(Abz)]
[19] = system: Lys(Dnp)-ATNATKHPRIVGG-Lys(Abz)
[20] = system: Lys(Dnp)-ATNATQDPRIVGG-Lys(Abz)
[21] = system: Lys(Dnp)-ATNATEAPRIVGG-Lys(Abz)
[22] = system: Lys(Dnp)-ATNATFWPRIVGG-Lys(Abz)
[23] = system: Lys(Dnp)-ATNATAVPRIVGG-Lys(Abz)
[24] = system: Lys(Dnp)-ATNATGNPRIVGG-Lys(Abz)
[25] = system: Lys(Dnp)-ATNATKTPRIVGG-Lys(Abz)
[26] = system: Lys(Dnp)-ATNATPFPRIVGG-Lys(Abz)
[27] = system: Lys(Dnp)-ATNATHFPRIVGG-Lys(Abz)
[28] = system: Lys(Dnp)-ATNATWPPRIVGG-Lys(Abz)
[29] = system: Lys(Dnp)-ATNATDEPRIVGG-Lys(Abz)
[30] = system: Lys(Dnp)-ATNATPDPRIVGG-Lys(Abz)
[31] = system: Lys(Dnp)-ATNATTDPRIVGG-Lys(Abz)
[32] = system: Lys(Dnp)-ATNATHGPRIVGG-Lys(Abz)
[33] = system: Lys(Dnp)-ATNATNGPRIVGG-Lys(Abz)
[34] = system: Lys(Dnp)-ATNATANPRIVGG-Lys(Abz)
[35] = system: Lys(Dnp)-ATNATTEPRIVGG-Lys(Abz)
[36] = system: Lys(Dnp)-ATNATSSPRIVGG-Lys(Abz)
[37] = system: Lys(Dnp)-ATNATQNPRIVGG-Lys(Abz)
[38] = system: Lys(Dnp)-ATNATQQPRIVGG-Lys(Abz)
[39] = system: Lys(Dnp)-ATNATNDPRIVGG-Lys(Abz)
[40] = system: Lys(Dnp)-ATNATTNPRIVGG-Lys(Abz)
[41] = system: Lys(Dnp)-ATNATVSPRIVGG-Lys(Abz)
[42] = system: Lys(Dnp)-ATNATVLPRIVGG-Lys(Abz)
[43] = system: Lys(Dnp)-ATNATQPPRIVGG-Lys(Abz)
[44] = system: Lys(Dnp)-ATNATHNPRIVGG-Lys(Abz)
[45] = system: Lys(Dnp)-ATNATDIPRIVGG-Lys(Abz)
[46] = system: Lys(Dnp)-ATNATFQPRIVGG-Lys(Abz)
[47] = system: Lys(Dnp)-ATNATVFPRIVGG-Lys(Abz)
[48] = system: Lys(Dnp)-ATNATDFPRIVGG-Lys(Abz)
[49] = system: Lys(Dnp)-ATNATLVPRIVGG-Lys(Abz)
[50] = system: Lys(Dnp)-ATNATRIPRIVGG-Lys(Abz)
[51] = system: Lys(Dnp)-ATNATINPRIVGG-Lys(Abz)
[52] = system: Lys(Dnp)-NESTTKIKPRIVGG-Lys(Abz)
[53] = system: Lys(Dnp)-ATNATDHPRIVGG-Lys(Abz)
[54] = system: Lys(Dnp)-ATNATEVPRIVGG-Lys(Abz)
[55] = system: FX ins[194]>[DFLAEGGGPR]-HPC4
FX ins[194]>[DFLAEGGGPR]-HPC4, sequence (chain, as listed by the source): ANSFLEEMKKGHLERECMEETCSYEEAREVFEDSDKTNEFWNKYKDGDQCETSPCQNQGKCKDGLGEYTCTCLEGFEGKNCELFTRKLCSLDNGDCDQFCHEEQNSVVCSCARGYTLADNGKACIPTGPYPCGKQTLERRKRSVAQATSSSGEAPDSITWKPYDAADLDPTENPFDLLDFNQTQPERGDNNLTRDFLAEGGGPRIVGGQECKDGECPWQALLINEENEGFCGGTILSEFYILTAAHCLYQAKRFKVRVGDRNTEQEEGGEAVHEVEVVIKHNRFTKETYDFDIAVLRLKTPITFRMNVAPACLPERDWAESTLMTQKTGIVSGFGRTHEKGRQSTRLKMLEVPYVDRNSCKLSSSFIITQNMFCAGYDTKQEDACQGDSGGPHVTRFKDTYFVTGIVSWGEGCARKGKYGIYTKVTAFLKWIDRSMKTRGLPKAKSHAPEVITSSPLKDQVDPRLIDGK

[56] = system: At least 20 sequences selected from the QF-substrate library
[57] = system: 21k-HEP-[N]-FX ins[194]>[DFLAEGGGVR]-HPC4
21k-HEP-[N]-FX ins[194]>[DFLAEGGGVR]-HPC4, sequence (chain, as listed by the source): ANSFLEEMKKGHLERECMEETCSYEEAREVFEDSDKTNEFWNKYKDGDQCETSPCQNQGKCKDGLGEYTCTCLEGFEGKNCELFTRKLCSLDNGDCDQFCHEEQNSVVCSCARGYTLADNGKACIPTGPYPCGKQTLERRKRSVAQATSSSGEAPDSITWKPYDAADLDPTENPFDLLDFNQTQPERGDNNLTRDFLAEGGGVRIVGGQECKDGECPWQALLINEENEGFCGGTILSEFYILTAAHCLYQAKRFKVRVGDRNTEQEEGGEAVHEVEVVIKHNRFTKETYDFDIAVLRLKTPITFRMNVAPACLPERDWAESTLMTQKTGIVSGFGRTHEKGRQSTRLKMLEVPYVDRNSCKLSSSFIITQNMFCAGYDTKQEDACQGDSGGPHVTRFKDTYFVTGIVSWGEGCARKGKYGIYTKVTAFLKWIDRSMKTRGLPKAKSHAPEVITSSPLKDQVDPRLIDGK

[58] = system: FX ins[194]>[DFLAEGGGVR]-HPC4
[59] = system: FpA_P quenched fluorescence substrate Lys(Dnp)-DFLAEGGGPRIVGG-Lys(Abz)
[60] = system: 40k-HEP-[N]-FX ins[194]>[DFLAEGGGVR]-HPC4
[61] = system: 73k-HEP-[N]-FX ins[194]>[DFLAEGGGVR]-HPC4

FX [191-194]>[LTPR]-HPC4, sequence (chain, as listed by the source): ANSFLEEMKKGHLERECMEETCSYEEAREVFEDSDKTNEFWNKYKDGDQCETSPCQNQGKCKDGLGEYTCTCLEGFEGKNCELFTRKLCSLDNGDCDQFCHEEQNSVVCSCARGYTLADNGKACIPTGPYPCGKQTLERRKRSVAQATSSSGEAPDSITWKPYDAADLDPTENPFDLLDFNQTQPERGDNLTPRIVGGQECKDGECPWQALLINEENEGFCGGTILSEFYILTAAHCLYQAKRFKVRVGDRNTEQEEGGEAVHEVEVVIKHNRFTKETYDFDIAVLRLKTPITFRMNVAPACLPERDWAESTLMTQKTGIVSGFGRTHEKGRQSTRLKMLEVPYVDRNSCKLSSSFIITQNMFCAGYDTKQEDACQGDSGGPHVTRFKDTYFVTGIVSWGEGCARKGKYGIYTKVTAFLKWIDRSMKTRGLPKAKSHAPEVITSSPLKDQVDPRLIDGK

FX-HPC4
kcat/KM (human α-thrombin (FIIa)): No Activity

Human plasma purified α-thrombin
kcat/KM [1]: 10 M⁻¹ s⁻¹ | kcat/KM [2]: 2000 M⁻¹ s⁻¹ | kcat/KM [3]: 9000 M⁻¹ s⁻¹ | kcat/KM [4]: 2000 M⁻¹ s⁻¹ | kcat/KM [5]: 30000 M⁻¹ s⁻¹ | kcat/KM [6]: 300 M⁻¹ s⁻¹ | kcat/KM [7]: 7000 M⁻¹ s⁻¹ | kcat/KM [8]: 0 M⁻¹ s⁻¹ | kcat/KM [9]: 700 M⁻¹ s⁻¹ | kcat/KM [10]: 800 M⁻¹ s⁻¹ | kcat/KM [11]: 9 M⁻¹ s⁻¹ | kcat/KM [12]: 7000 M⁻¹ s⁻¹ | kcat/KM [13]: 40000 M⁻¹ s⁻¹ | FIIa kcat/KM [14]: 5000 M⁻¹ s⁻¹ | kcat/KM [14]: 5000 M⁻¹ s⁻¹ | FIIa kcat/KM [15]: 20000 M⁻¹ s⁻¹ | kcat/KM [15]: 20000 M⁻¹ s⁻¹ | kcat/KM [16]: 2 M⁻¹ s⁻¹ | kcat/KM [17]: 20000 M⁻¹ s⁻¹ | kcat/KM [18]: 3000 M⁻¹ s⁻¹ | kcat/KM [19]: 900 M⁻¹ s⁻¹ | kcat/KM [20]: 500 M⁻¹ s⁻¹ | kcat/KM [21]: 400 M⁻¹ s⁻¹ | FIIa kcat/KM [22]: 20000 M⁻¹ s⁻¹ | kcat/KM [22]: 20000 M⁻¹ s⁻¹ | FIIa kcat/KM [23]: 9700 M⁻¹ s⁻¹ | kcat/KM [23]: 9700 M⁻¹ s⁻¹ | kcat/KM [24]: 700 M⁻¹ s⁻¹ | kcat/KM [25]: 610 M⁻¹ s⁻¹ | FIIa kcat/KM [26]: 9000 M⁻¹ s⁻¹ | kcat/KM [26]: 9000 M⁻¹ s⁻¹ | kcat/KM [27]: 1000 M⁻¹ s⁻¹ | FIIa kcat/KM [28]: 9700 M⁻¹ s⁻¹ | kcat/KM [28]: 9700 M⁻¹ s⁻¹ | kcat/KM [29]: 0.0004 M⁻¹ s⁻¹ | kcat/KM [30]: 2000 M⁻¹ s⁻¹ | kcat/KM [31]: 1000 M⁻¹ s⁻¹ | kcat/KM [32]: 1000 M⁻¹ s⁻¹ | kcat/KM [33]: 500 M⁻¹ s⁻¹ | kcat/KM [34]: 4000 M⁻¹ s⁻¹ | kcat/KM [35]: 700 M⁻¹ s⁻¹ | kcat/KM [36]: 1000 M⁻¹ s⁻¹ | kcat/KM [37]: 2000 M⁻¹ s⁻¹ | kcat/KM [38]: 10000 M⁻¹ s⁻¹ | kcat/KM [39]: 3 M⁻¹ s⁻¹ | kcat/KM [40]: 600 M⁻¹ s⁻¹ | FIIa kcat/KM [41]: 7600 M⁻¹ s⁻¹ | kcat/KM [41]: 7600 M⁻¹ s⁻¹ | kcat/KM [42]: 5000 M⁻¹ s⁻¹ | kcat/KM [43]: 0 M⁻¹ s⁻¹ | kcat/KM [44]: 800 M⁻¹ s⁻¹ | kcat/KM [45]: 30 M⁻¹ s⁻¹ | FIIa kcat/KM [46]: 30000 M⁻¹ s⁻¹ | kcat/KM [46]: 30000 M⁻¹ s⁻¹ | FIIa kcat/KM [47]: 8400 M⁻¹ s⁻¹ | kcat/KM [47]: 8400 M⁻¹ s⁻¹ | kcat/KM [48]: 600 M⁻¹ s⁻¹ | FIIa kcat/KM [49]: 30000 M⁻¹ s⁻¹ | kcat/KM [49]: 30000 M⁻¹ s⁻¹ | kcat/KM [50]: 1000 M⁻¹ s⁻¹ | kcat/KM [51]: 10000 M⁻¹ s⁻¹ | kcat/KM [52]: 20000 M⁻¹ s⁻¹ | kcat/KM [53]: 1000 M⁻¹ s⁻¹ | kcat/KM [54]: 200 M⁻¹ s⁻¹

human α-thrombin (FIIa)
activation rate (kcat/KM) by α-thrombin, relative to FX ins[194]>[DFLAEGGGVR]-HPC4 [55]: This activation rate is 10× the observed activation rate for a variant having the unmodified FpA sequence (FX ins[194]>[DFLAEGGGVR]-HPC4) | cleavage rate (kcat/KM) by thrombin, fold improvement over the parent PAR-1 sequence [56]: >20-fold improved cleavage rates (kcat/KM) over the parent PAR-1 sequence | kinetic parameters (kcat, KM and kcat/KM) of activation, compared with the unconjugated molecule [57]: there is no significant effect of hepylation on the observed kinetic parameters for the tested molecule | kcat of activation by α-thrombin, relative to FX [191-194]>[MTPR]-HPC4 [58]: each of which have 5-10 fold higher kcat values than FX [191-194]>[MTPR]-HPC4 | cleavage rate (kcat/KM) by thrombin [59]: The most improved natural substrate was shown to be the FpA_P sequence, which has a proline residue at X2 instead of the naturally occurring valine | kcat of activation by α-thrombin, relative to FX [191-194]>[MTPR]-HPC4 (FX [191-194]>[LTPR]-HPC4): each of which have 5-10 fold higher kcat values than FX [191-194]>[MTPR]-HPC4 | kinetic parameters (kcat, KM and kcat/KM) of activation, compared with the unconjugated molecule [60]: there is no significant effect of hepylation on the observed kinetic parameters for the tested molecule | kinetic parameters (kcat, KM and kcat/KM) of activation, compared with the unconjugated molecule [61]: there is no significant effect of hepylation on the observed kinetic parameters for the tested molecule
